T1: Bik1-6xHis (S. cerevisiae, UniProt P11709 1-440)
T1 construct: Bik1, S. cerevisiae CLIP-170 homolog; Detected with an anti-penta-His antibody in SEC fractions; also called Bik1/CLIP-170; source: E. coli BL21 Rosetta, purified (HisTrap, gel filtration)
T1 sequence (looked up): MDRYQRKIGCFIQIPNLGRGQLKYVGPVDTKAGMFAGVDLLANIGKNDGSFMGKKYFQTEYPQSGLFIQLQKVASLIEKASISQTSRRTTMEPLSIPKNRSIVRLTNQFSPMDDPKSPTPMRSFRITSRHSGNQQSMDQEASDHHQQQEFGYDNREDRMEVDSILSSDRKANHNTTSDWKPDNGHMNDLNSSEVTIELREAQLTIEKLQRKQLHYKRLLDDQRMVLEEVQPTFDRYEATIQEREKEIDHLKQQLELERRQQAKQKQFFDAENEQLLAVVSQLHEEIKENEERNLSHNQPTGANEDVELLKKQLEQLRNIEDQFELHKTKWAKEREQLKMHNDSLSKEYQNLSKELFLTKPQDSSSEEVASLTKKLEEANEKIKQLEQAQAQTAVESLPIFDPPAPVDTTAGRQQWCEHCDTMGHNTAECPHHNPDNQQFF

B1: Bim1 (yeast homolog of EB1), recombinant (natural protein, S. cerevisiae, UniProt P40013 1-344, looked up)
chain: MSAGIGESRTELLTWLNGLLNLNYKKIEECGTGAAYCQIMDSIYGDLPMNRVKFNATAEYEFQTNYKILQSCFSRHGIEKTVYVDKLIRCKFQDNLEFLQWLKKHWIRHKDESVYDPDARRKYRPIITNNSATKPRTVSNPTTAKRSSSTGTGSAMSGGLATRHSSLGINGSRKTSVTQGQLVAIQAELTKSQETIGSLNEEIEQYKGTVSTLEIEREFYFNKLRDIEILVHTTQDLINEGVYKFNDETITGHGNGNGGALLRFVKKVESILYATAEGFEMNDGEDELNDKNLGEHGTVPNQGGYANSNGEVNGNEGSNHDVIMQNDEGEVGVSNNLIIDEETF
notes: Bim1, S. cerevisiae microtubule plus end-tracking protein; CH domain, linker, coiled coil, EBH domain, C-terminal ETF; also called Bim1/EB1; source: E. coli, purified (GSTrap, further steps as in Zimniak et al 2009)
B2: Dam1 subunit within recombinant Dam1^WTc (natural protein, S. cerevisiae, UniProt P53267 1-343, looked up)
chain: MSEDKAKLGTTRSATEYRLSIGSAPTSRRSSMGESSSLMKFADQEGLTSSVGEYNENTIQQLLLPKIRELSDSIITLDSNFTRLNFIHESLADLNESLGSLLYGIMSNSWCVEFSQAPHDIQDDLIAIKQLKSLEDEKNNLVMELSNMERGIKRKKDEQGENDLAKASQNKQFNQPLFPSSQVRKYRSYDNRDKRKPSKIGNNLQVENEEDYEDDTSSEASFVLNPTNIGMSKSSQGHVTKTTRLNNNTNSKLRRKSILHTIRNSIASGADLPIENDNVVNLGDLHPNNRISLGSGAARVVNGPVTKNRNSMFSGRAERKPTESRHSVAKKTEKKINTRPPFR
notes: Dam1, subunit of the Dam1 complex, S. cerevisiae; Stood in the cross-linking experiment as a subunit of m1; source: E. coli, purified as part of Dam1c
B3: Spc34 subunit within recombinant Dam1^WTc (natural protein, S. cerevisiae, UniProt P36131 1-295, looked up)
chain: MGESLDRCIDDINRAVDSMSTLYFKPPGIFHNAILQGASNKASIRKDITRLIKDCNHDEAYLLFKVNPEKQSVSRRDGKEGVFDYVIKRDTDMKRNRRLGRPGEKPIIHVPKEVYLNKDRLDLNNKRRRTATTSGGGLNGFIFDTDLIGSSVISNSSSGTFKALSAVFKDDPQIQRLLYALENGSVLMEEESNNQRRKTIFVEDFPTDLILKVMAEVTDLWPLTEFKQDYDQLYHNYEQLSSKLRFIKKEVLLQDDRLKTMSQYHPSSSHDVAKIIRKEKDEIRRLEMEIANLQE
notes: Spc34, subunit of the Dam1 complex, S. cerevisiae; Stood in the cross-linking experiment as a subunit of m1; source: E. coli, purified as part of Dam1c
B4: Duo1 subunit within recombinant Dam1^WTc (natural protein, S. cerevisiae, UniProt P53168 1-247, looked up)
chain: MSEQSQLDDSTIDKLIPQIFNEMRSNLNNTTNKFPKSTGGGASDNISANSNSIRSFNSITTQSLLKESESLDKITAMIKNVTAALKNNLPVYVNQVHEVCKSTNSILDSWINIHSQAGYIHKLMSDQTYLKLINDRLHNENVNTNDEDGSTLHNVIALKKKEILDLRQKLENRKGEKDAAPAKPPNQGLNPRYGVQSGRRPVPSAGISNNGRVRKTHVPASKRPSGIPRVTNRWTKPTASSSRKMFR
notes: Duo1, subunit of the Dam1 complex, S. cerevisiae; Stood in the cross-linking experiment as a subunit of m1; source: E. coli, purified as part of Dam1c

How the values were obtained:
[1] = molecular target: Dam1 complex, wild type (Dam1^WTc), recombinant, with Hsk3-6xHis (S. cerevisiae) (UniProt P53267); assay: pull-down; Ndc80c-Flag on anti-Flag M2 agarose beads (loaded from Sf9 lysate, washed); Dam1c or Bim1 alone or Dam1c pre-incubated with increasing Bim1 (up to 16 µM), 4°C 15 min; 25 mM HEPES pH 7.4, 200 mM NaCl, 0.01% Triton X-100; eluted with 3xFlag peptide, SDS-PAGE
Bik1-6xHis = molecular target: T1, Bik1-6xHis; assay: SEC; analytical, Superose 6 Increase 3.2/300; 25 mM HEPES pH 7.4, 200 mM NaCl, 1 mM MgCl2, 0.5 mM TCEP, 2.5% glycerol; fractions by SDS-PAGE or Western blot; Dam1c with Bim1-Bik1 also at 5, 7.5, 10 µM input and at 100 mM NaCl; details: both partners purified
[2] = molecular target: B4; assay: cross-linking; BS3-H12/D12 600 µM, 35°C, 45 min; 60 µg Dam1c without or with 7.4 µg Bim1; cross-linked lysines identified by mass spectrometry; details: both partners purified
[3] = molecular target: B1; assay: as above; details: both partners purified
[4] = molecular target: B3; assay: as above; details: both partners purified
[5] = molecular target: B2; assay: as above; details: both partners purified

Binder | binding result [3] | also measured
B1 |  | decrease of the amount of Dam1c bound to Ndc80c with Bim1 up to 16 µM [1]: 30%; binding result (Bik1-6xHis): binds
Spc19 subunit within recombinant Dam1^WTc (natural protein, S. cerevisiae, UniProt Q03954 1-165, looked up, Spc19, subunit of the Dam1 complex, S. cerevisiae; Stood in the cross-linking experiment as a subunit of m1; source: E. coli, purified as part of Dam1c) MTDALEQSVLALEGTVSVLKDSVESLKCANEPSTNLASTMLQTKRVFRLVPEYDVERSKLDLIEEVEPLVRTLGDKLRKSMGRMQRELDTLQQTYELNDLRLKKNISMDDDDALNSPDMGQEYEGRDADDVVMMASSTNEELEELKKLKEKKKQLENKLEILKQK | binds | binding result [2]: binds
B2 | binds | 
Dad4 subunit within recombinant Dam1^WTc (natural protein, S. cerevisiae, UniProt P69851 1-72, looked up, Dad4, subunit of the Dam1 complex, S. cerevisiae; Stood in the cross-linking experiment as a subunit of m1; source: E. coli, purified as part of Dam1c) MENPHEQVQANILSRIIGNVKRLNESVAILNQELVTINNRNKNLEIMGAICDNYHSSVQFNLEATNNKKPPL | binds | 
B3 | binds | 
B4 | binds | binding result [4]: binds; binding result [5]: binds

Reference: paper PMC8441410, “Phospho‐regulated Bim1/EB1 interactions trigger Dam1c ring assembly at the budding yeast outer kinetochore” (The EMBO Journal, 2021)
